± gives the standard deviation of the averaged measurements.
Test system: ATP
Experiment: switch fluorescence ratio, 500 uM ATP over buffer (Cy3 cluster intensity, sum of 5 cycles each) (fold (ratio)); higher = stronger signal-on switching upon ATP binding; sequences stand for … in TCGTCGGCAGCGTCAGATGTGTATAAGAGACAGTTTTTTTTTTTTTTTTTTTTTTTTT…TC
Settings: aptamer strand: ATP DNA aptamer (quencher-CACCTGGGGGAGTATTGCGGAGGAAGG + anchor), 100 nM annealed; ATP concentration: 500 uM
Summary of the method: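 Per cluster, summed Cy3 intensity from the target cycles was divided by that from the buffer cycles to give the fluorescence ratio, then averaged per switch-domain sequence. Clusters outside 100-1000 RFU were excluded. The Cy3-labelled switching-strand clusters, on a modified Illumina MiSeq flow-cell, were annealed to 100 nM quencher-labelled ATP aptamer and imaged in selection buffer, then after 15 min with 500 uM ATP at 22 °C, for five cycles with NaOH stripping and re-annealing between them.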
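Further: ATP exposure 15 min at 22 °C before imaging.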

Sequence | switch fluorescence ratio
TAGGGCAGGG | 1 ± 0.0022
GGGTCATTCA | 0.9922 ± 0.0049
TGTTTTAAAT | 0.978 ± 0.03
GATGAAGATT | 1.011 ± 0.005
AAACAATGTG | 0.972 ± 0.013
AGACGGCTTG | 1.01 ± 0.025
GTTGCTACCA | 1.01 ± 0.053
GGAGTCTTGT | 1.01 ± 0.03
TTTTTCTATT | 0.988 ± 0.019
GTTGTTTTCA | 0.993 ± 0.024
AGGCATAAGG | 0.9897 ± 0.0077
GTGGCATGTT | 0.9788 ± 0.0038
CCTTCCCGGG | 1.59 ± 0.0072
TTCGTCTGGG | 1.03 ± 0.065
AGTAGCAGCT | 1.03 ± 0.048
GCGACGGGAA | 1.34 ± 0.09
GGGTGTAACT | 0.9812 ± 0.0074
AGTTGCCCGG | 1.006 ± 0.0068
ATGCTACCTT | 1.1 ± 0.048
TGGGCGTGTG | 1.02 ± 0.017
GAGTACTGTT | 0.972 ± 0.045
GCTTTTGCTG | 0.997 ± 0.013
AGCACGGCAG | 0.991 ± 0.021

Sequence | switch fluorescence ratio
ATCACTTGAC | 1.104 ± 0.0078
AACAGGCGGC | 0.9872 ± 0.00069
GGTAACAGGG | 1.02 ± 0.032
GCGAGATGCG | 0.972 ± 0.032
CGTTGCTCCC | 1.3 ± 0.49
GGTTTCGCGA | 1.07 ± 0.053
TTTTTACCTT | 1.07 ± 0.046
GGTTATTTGT | 0.992 ± 0.041
GGAGTGTTGG | 1.002 ± 0.0051
CCTTGCCGGG | 1.05 ± 0.019
GATGATGGTG | 0.968 ± 0.011
GGCTGCTTTC | 1.03 ± 0.055
CACGGGGGGT | 1.02 ± 0.052
GGGGTAGTTG | 0.99 ± 0.028
GGGGATGCAG | 0.985 ± 0.049
GGGTACGAGT | 0.9314 ± 0.0031
AAGAGGGTAA | 0.963 ± 0.012
ATGTCGGTTT | 1.02 ± 0.026
GCGGGGACTT | 0.984 ± 0.038
ACTTTGTTCT | 1 ± 0.027
CTGTAAGGTT | 1.09 ± 0.14
TTGCTTTAGA | 0.974 ± 0.012
TTTTCCCGAA | 0.967 ± 0.026

Sequence | switch fluorescence ratio
CAAATGGTGG | 1.02 ± 0.0022
CGGCTTTTTG | 0.991 ± 0.034
TGGGTTTTTA | 0.9442 ± 0.0014
TGCCGAAAGC | 1.018 ± 0.0087
AGTATTCTG | 0.961 ± 0.04
CAGTGCGCTT | 1.1 ± 0.085
GTAAGAGTTC | 1.02 ± 0.051
CGAAGTTTGT | 0.98 ± 0.01
CAGATCACGA | 1.01 ± 0.017
ATTAGACAGC | 1.01 ± 0.032
AAATGGAACC | 1.04 ± 0.065
CATAAAATCG | 0.9666 ± 0.0091
GCCGCTAAGG | 0.9968 ± 0.0035
TACTCTGGAA | 4.15 ± 0.18
GAGTTTAGTT | 0.9893 ± 0.0064
AAATTAAAAG | 0.984 ± 0.031
CGATGCGGGG | 1.011 ± 0.0095
CCTCAGAGGG | 1.24 ± 0.22
GATTTTACGA | 0.994 ± 0.052
GTGTTGGACC | 0.9782 ± 0.00099
CCTGCAGGGG | 1.094 ± 0.0051
AATGAGGTCG | 1.002 ± 0.0046
CGTAATGTTA | 1.01 ± 0.019

Sequence | switch fluorescence ratio
CGGGGATGTA | 0.972 ± 0.031
AGGGGAAAGA | 1.02 ± 0.04
GAGGGCTAGT | 0.9713 ± 0.0027
GGGTTTTTCT | 0.99 ± 0.036
TGATGGGAGT | 0.983 ± 0.014
TTGAGAGTCT | 1.01 ± 0.18
CTACTTATTT | 1.02 ± 0.024
GGCGTCTTCC | 1.01 ± 0.037
ATGGGTAGTG | 0.984 ± 0.02
TTAGCCTCTT | 0.996 ± 0.032
GATTGAAAGG | 0.957 ± 0.0097
GAGGTACTTT | 0.993 ± 0.022
CGCTATTTTT | 1.02 ± 0.02
AGGCAAAGTT | 0.989 ± 0.026
GTGGTTCCAA | 0.9932 ± 0.0063
ACGAGGACAG | 1.06 ± 0.0025
TGGAAGGGCT | 1.052 ± 0.0058
TTGTTCTGGG | 0.972 ± 0.022
TGTCCCAAGC | 1.18 ± 0.03
AAGGTGAAGA | 1.04 ± 0.029
CGGAGGGATG | 1.71 ± 0.66
TGCAAACCTT | 2.39 ± 0.047
TAGTCCATCG | 0.998 ± 0.012

Sequence | switch fluorescence ratio
AGTGGGATGG | 1.03 ± 0.037
CTTGTGTACG | 0.965 ± 0.02
CTGGAGGGGG | 1.01 ± 0.032
CGCGAGCTTT | 1.015 ± 0.0032
AAAAATCGAG | 1.0015 ± 0.00019
ACGCTTAGAC | 1.66 ± 0.24
TGAGATCGCG | 1.004 ± 0.0018
AATTGTAGGG | 0.987 ± 0.03
TGAAGTGTTG | 0.99 ± 0.019
ACTGATCGCG | 1.02 ± 0.034
TCACAGCTGG | 1.04 ± 0.016
TCGGGAGGGT | 1.02 ± 0.023
ATGTTTATGA | 0.981 ± 0.031
ATGTCACTTG | 1.02 ± 0.018
AGGGGTGGGT | 1.04 ± 0.054
TGCTTGAGTC | 1.009 ± 0.0027
GTTCGGGGTG | 0.978 ± 0.003
TTGTCATGGG | 0.958 ± 0.011
TCGTTTGGGC | 1.02 ± 0.019
TGCCTGCATT | 1.02 ± 0.011
ATTGGGTAT | 0.988 ± 0.021
TATAGTGGGT | 1.01 ± 0.067
GAGTTTAGGA | 0.969 ± 0.034

Sequence | switch fluorescence ratio
TTTTTAGGAT | 1.11 ± 0.17
TAGGGAGAGT | 1.01 ± 0.022
TTTATTTACT | 1.011 ± 0.0036
GGCCCGGTTT | 0.99 ± 0.029
CGAGGTTCTG | 0.97 ± 0.039
TCAGAAGGCT | 0.999 ± 0.065
TACAGCGCGT | 1.01 ± 0.021
CGGGCTGCGT | 0.962 ± 0.028
TTCGAACACG | 0.994 ± 0.028
TCGACTGTTT | 1.03 ± 0.018
CCCTAATACG | 1.76 ± 0.044
CAATGAAAGC | 1.04 ± 0.021
GTTTTCGAGC | 1.11 ± 0.043
AATGGATTTT | 0.982 ± 0.013
TAAGTGGAAA | 0.992 ± 0.05
TCTGGGAGGG | 1.03 ± 0.047
GATTGCTGGT | 0.9513 ± 0.0046
TTGTCTTTGG | 1.01 ± 0.041
CAATTGTGGG | 0.996 ± 0.026
GATTTAGACG | 0.945 ± 0.06
GGGTGTGTGC | 1.03 ± 0.08
TAGGGGGTGT | 0.991 ± 0.018
AGGGGAATTG | 0.955 ± 0.021

Sequence | switch fluorescence ratio
GGGCCTGGAA | 1.01 ± 0.069
TTATTGTAAT | 1.029 ± 0.0099
ATAGAGCGCT | 0.988 ± 0.023
GGTCGATGAT | 0.98739 ± 0.00068
TTCACACTA | 1.07 ± 0.044
TTAAGTTGTT | 0.965 ± 0.016
CGTCGCAGAA | 1.093 ± 0.004
TCGGTCCCTT | 0.988 ± 0.035
CGCGTTTTTG | 1.01 ± 0.014
GGGGAAGGCA | 0.946 ± 0.084
GGGGCAGGTG | 1.27 ± 0.39
GGAGTTTAAA | 0.999 ± 0.043
CTTAGGGCAC | 1.05 ± 0.016
ATGATTACGA | 1.03 ± 0.026
AATAAGGGGC | 1.0051 ± 0.00093
CGAGGGACCC | 1.01 ± 0.044
TATATTATGC | 1.02 ± 0.011
TGGGATAATG | 1.012 ± 0.0042
TCGGGTTCAG | 1 ± 0.034

Source: the supplement of paper PMC10126150
